± gives the standard deviation of the averaged measurements.

This data set has as its system VchCAST RNA-guided transposition machinery (E. coli BL21(DE3) host, lacZ target). Put plainly: relative integration efficiency (T-LR orientation) vs wild-type transposon end (log2 (normalized fold change)); transposon end mutated: right end (5 bp flank + 75 bp right end); higher = more efficient transposition. The method in brief:
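Co-transformation of E. coli BL21(DE3) combined a pUC57 mini-transposon donor, holding barcoded pools of 1549 left-end or 1849 right-end variants, with a T7-driven plasmid encoding a CRISPR array, tniQ-cas8-cas7-cas6 and tnsA-tnsB-tnsC. After plating with 0.1 mM IPTG at 37°C for 18 h, input plasmids and genomic integration junctions were PCR-amplified and Illumina-sequenced across two biological output replicates, with four reference barcodes. Relative integration efficiency is the normalised, log-transformed output/input barcode fold change.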
For “ACATTTGTTGATACAACCATAAAATGATAATTACACCCATACCGGTCGCCGGCGACACAAACGCCCGGTCGCGGTAAGAGGATCATAGTCAGACCAACATTGCTACGACCCGTATTCGCACCGACAC”, the “relative integration efficiency (log2)” value came out at 0.296 ± 0.13.

Consider “ACATTTGTTGATACAACCATAAAATGATAATTAATAATTATTTATAATCAGCAACTTAACCACAACACCCATAAATTGATAATTATCACACCCATAAATTGATATTGCCTCTGATCATAGTCAGACC”, for which the “relative integration efficiency (log2)” value was -2.74 ± 0.53.

As for “ACATTTGTGGATACAACCATAAAATGATAATTACACCCATAAATTCATCATTATCACACCCAATTTAACTATAACGCTCTGATCATAGTCAGACCAACATTGCTACGACCCGTATTCGCACCGACAC”, the “relative integration efficiency (log2)” value is 1.48 ± 0.12.

As to “ACATTTGTTGATACAACCATAAAAGGATAATTACACCCATCAATTGATAATTATCCCACCCCATTTAACTATAACGCTCTGATCATAGTCAGACCAACATTGCTACGACCCGTATTCGCACCGACAC”, the “relative integration efficiency (log2)” value came to 0.942 ± 0.22.

As for “ACATTTGTTGATACAACCATAAGTTGATATTTTCACCCATAAATTGATAATTATCACAACCATAAGTTGATATTTTCTCTGATCATAGTCAGACCAACATTGCTACGACCCGTATTCGCACCGACAC”, the “relative integration efficiency (log2)” value is -0.0829 ± 0.01.

As to “ACATTTGTTGATACAACCATAAAATGATAATTACACCCATAAATTGATAATTATCAACACCCATAAATTGATATTGCCTCTGATCATAGTCAGACCAACATTGCTACGACCCGTATTCGCACCGACA”, the “relative integration efficiency (log2)” value came to 0.619 ± 0.036.

Take “ACATTTGTTGATACAACCATAAGTTGATATTTTCACCCATAAATTGATAATTATCACAACCATATATTGATATCTCCTCTGATCATAGTCAGACCAACATTGCTACGACCCGTATTCGCACCGACAC”: the “relative integration efficiency (log2)” value is -0.455 ± 0.14.

As to “ACATTTGTTGATACAACCATAAAATGATAATTACACCCATAAATTGATATTGCTCACAACCATAAAGTGATATTTACTCTGATCATAGTCAGACCAACATTGCTACGACCCGTATTCGCACCGACAC”, the “relative integration efficiency (log2)” value was 0.269 ± 0.25.

Regarding “ACATTTGTCGATACAACCATAAAATGATAATTACACCCATAAATTCATCATTATCACCCCCAATTTAACTATAACGCTCTGATCATAGTCAGACCAACATTGCTACGACCCGTATTCGCACCGACAC”, the “relative integration efficiency (log2)” value was 1.54 ± 0.23.

Turning to “ACATTTGTTGATACAACCATTAAATGGTAATTCCACCCAAAAATTGATAATTATCACACCCAATTTAACTATAACGCTCTGATCATAGTCAGACCAACATTGCTACGACCCGTATTCGCACCGACAC”, the “relative integration efficiency (log2)” value was found to be 0.883 ± 0.18.

Turning to “ACATTTGTTGATACAACCATAAAATGATAATTACACCCATAAATTGATAATTTACACACCCATAAATTGATATTGCCTCTGATCATAGTCAGACCAACATTGCTACGACCCGTATTCGCACCGACAC”, the “relative integration efficiency (log2)” value was 0.268 ± 0.15.

For “ACATTTGTTGATACAACCATAAAATGATAATTACCCCCATCAATTGATAATTATCACACCCCATTTAACTATAACGCTCTGATCATAGTCAGACCAACATTGCTACGACCCGTATTCGCACCGACAC”, the “relative integration efficiency (log2)” value was determined as 0.526 ± 0.33.

“ACATTTGTCGATACAACCCTAAAATGATAATTACACCCATAAATTGATAATTATCACCCCCAATTTAACTATAACGCTCTGATCATAGTCAGACCAACATTGCTACGACCCGTATTCGCACCGACAC”: the “relative integration efficiency (log2)” value was found to be 0.88 ± 0.35.

As to “ACATTTGTTAAAAAAACCATACGTTGATTTTACGAAACCATACGCTGAAATAATCACACCCATAAATTGATATTGCCTCTGATCATAGTCAGACCAACATTGCTACGACCCGTATTCGCACCGACAC”, the “relative integration efficiency (log2)” value was -5.9 ± 0.37.

On to “ACATTTGTTGATACAAGGATAAAATGATAATTACACCCATAAATTGATAATTATCACACCCATAAATTGATATTGCCTCTGATCATAGTCAGACCAACATTGCTACGACCCGTATTCGCACCGACAC”, for which the “relative integration efficiency (log2)” value is -0.87 ± 0.12.

“ACATTTGTTGATACAACCATAAAATCATAATTACCCCCATAAATTGATAATTATCCCACCCCATTTAACTATAACGCTCTGATCATAGTCAGACCAACATTGCTACGACCCGTATTCGCACCGACAC”: the “relative integration efficiency (log2)” value was 0.676 ± 0.046.

Turning to “ACATTTGTTGATACAACCATAAAATGATAATTACACCCATAAATTGATAATTATCACACCCATAAATTGATATTGGGAGTGATCATAGTCAGACCAACATTGCTACGACCCGTATTCGCACCGACAC”, the “relative integration efficiency (log2)” value came out at 0.108 ± 0.15.

With “ACATTTGTTGATACAACCATAAAATGATAATTAATAATTATTTATAATCAGCAACTTACACCCATAAATTGATAATTATCACACCCATAAATTGATATTGCCTCTGATCATAGTCAGACCAACATTG”, the “relative integration efficiency (log2)” value is -3.43 ± 0.46.

Regarding “ACATTTGTTGATACAACCATATATTGATATCTCCAACCATAAAGTGATATTTATCACAACCATAAGTTGATATTTTCTCTGATCATAGTCAGACCAACATTGCTACGACCCGTATTCGCACCGACAC”, the “relative integration efficiency (log2)” value came out at 0.0054 ± 0.55.

On to “ACATTTGTTGATACAACCATAAAATCATCATTACCCCCATAAATTGATAATTATCACACCCAATTTAACTATAACGCTCTGATCATAGTCAGACCAACATTGCTACGACCCGTATTCGCACCGACAC”, for which the “relative integration efficiency (log2)” value was -0.419 ± 0.52.

Turning to “ACATTTGTTGATACAACCATAAAATGATAATTAATAATTATTTATAATCCACCCATAAATTGATAATTATCAACAAACGCCCGGTCGCGGTACTCTGATCATAGTCAGACCAACATTGCTACGACCC”, the “relative integration efficiency (log2)” value was determined as 1.24 ± 0.42.

For “ACATTTGTTGATACACCCATAAATTGATATTGCCACCCATAAATTGATATTGCTCACAACCATAAAGTGATATTTACTCTGATCATAGTCAGACCAACATTGCTACGACCCGTATTCGCACCGACAC”, the “relative integration efficiency (log2)” value turned out to be 0.0649 ± 0.043.

On to “ACATTGGTGGATACAACCATAAAATGATAATTACACCCATAAATTCATAATTATCACACCCAATTTAACTATAACGCTCTGATCATAGTCAGACCAACATTGCTACGACCCGTATTCGCACCGACAC”, for which the “relative integration efficiency (log2)” value is -4.36 ± 0.31.

“ACATTTGTTGATACAACCATAAAATGATAATTCCACCCATACATTGATAATTATCACACCCAATTTAACTATAACGCTCTGATCATAGTCAGACCAACATTGCTACGACCCGTATTCGCACCGACAC”: the “relative integration efficiency (log2)” value was determined as 0.785 ± 0.032.

“ACATTTGTTGATACAACCATAAAATGATTATTACACCCATTAATTGATAATTATCACACCCAATTTAACTATAACGCTCTGATCATAGTCAGACCAACATTGCTACGACCCGTATTCGCACCGACAC”: the “relative integration efficiency (log2)” value came to 2.31 ± 0.036.

For the sequence “ACATTTGTTCATCCAACCATAAAATGATAATTACACCCATAAATTCATAATTATCACACCCAATTTAACTATAACGCTCTGATCATAGTCAGACCAACATTGCTACGACCCGTATTCGCACCGACAC”, the “relative integration efficiency (log2)” value was -1.1 ± 0.16.

Turning to “ACATTTGTTGATACACCCATAAATTGATATTGCCACCCATAAATTGATAATTATCACAACCATATATTGATATCTCCTCTGATCATAGTCAGACCAACATTGCTACGACCCGTATTCGCACCGACAC”, the “relative integration efficiency (log2)” value was -0.478 ± 0.18.

For the sequence “ACATTTGTTGATACAACCATAAAATGATAATTACACCCATAAATTGATTTTTATCACACCCATAAATTGATATTGCCTCTGATCATAGTCAGACCAACATTGCTACGACCCGTATTCGCACCGACAC”, the “relative integration efficiency (log2)” value is 0.0005 ± 0.35.

As for “ACATTTGTTGATACAACCATAAAATGATAATTACACCCATAAATTGATAATTATCACACCCATAAATTGATATTGCCTCTGACTTAAACAAAATATATCTTGCCCGCCTTACAAATAGCACCGACAC”, the “relative integration efficiency (log2)” value was 0.774 ± 0.22.

Consider “ACATTTGTCGATACAACCCTAAAATGATAATTACACCCATAAATGGATAATTATCACCCCCAATTTAACTATAACGCTCTGATCATAGTCAGACCAACATTGCTACGACCCGTATTCGCACCGACAC”, for which the “relative integration efficiency (log2)” value is -1.16 ± 0.21.

Take “ACATTTGTTGATACAACCATAAAATGTATTTTACACCCATAAATTGATAATTATCACACCCATAAATTGATATTGCCTCTGATCATAGTCAGACCAACATTGCTACGACCCGTATTCGCACCGACAC”: the “relative integration efficiency (log2)” value was -0.626 ± 0.31.

With “ACATTTGTTGATACAACCATAAAATGATAATTACACCCATAAATGTATAATTATCACACCCATAAATTGATATTGCCTCTGATCATAGTCAGACCAACATTGCTACGACCCGTATTCGCACCGACAC”, the “relative integration efficiency (log2)” value is -1.04 ± 0.38.

The values are drawn from the supplement of paper PMC10201428.
